Test results reported in PMC10786891, “Massively parallel profiling of RNA-targeting CRISPR-Cas13d”.
Residue numbers refer to the chain shown, from its start. In names and notes the source's numbering stands.

B1: target 1 G17U,U19G (mixed)
RNA 1: CACCCGUGCAAAAAUGCAGGGGUCUAAAACUGAGCGGAUAACCUCUCUAUGG
RNA 2: GGGAAUGGAUCCACAUCUACGAAUUCGUACCAGAUAGAGGUUAUCCGCUCACCGAGAUCGGAAGAGCACACGU
B2: target 1 C2G,U3C (mixed)
RNA 1: B1 RNA 1
RNA 2: B1 RNA 2 with G33U, U35G, U49C, C50G
B3: target 1 U3G,G5U (mixed)
RNA 1: B1 RNA 1
RNA 2: B1 RNA 2 with G33U, U35G, G47U, U49G
B4: target 1 complement block 1-7 (mixed)
RNA 1: B1 RNA 1
RNA 2: B1 RNA 2 with G33U, U35G, C45G, C46G, G47C, C48G, U49A, C50G, A51U
B5: target 1 U10A,U11A (mixed)
RNA 1: B1 RNA 1
RNA 2: B1 RNA 2 with G33U, U35G, U41A, U42A
B6: target 1 insG 3' of 3,insG 3' of 2 (mixed)
RNA 1: B1 RNA 1
RNA 2: GGGAAUGGAUCCACAUCUACGAAUUCGUACCAUAGAGAGGUUAUCCGCUGCGACCGAGAUCGGAAGAGCACACGU
B7: target 1 insC 3' of 16,insC 3' of 1 (mixed)
RNA 1: B1 RNA 1
RNA 2: GGGAAUGGAUCCACAUCUACGAAUUCGUACCAUAGACGAGGUUAUCCGCUCACCCGAGAUCGGAAGAGCACACGU
B8: target 1 insU 3' of 20,insC 3' of 18 (mixed)
RNA 1: B1 RNA 1
RNA 2: GGGAAUGGAUCCACAUCUACGAAUUCGUACCAUUACGAGAGGUUAUCCGCUCACCGAGAUCGGAAGAGCACACGU
B9: target 1 A1U,C4A (mixed)
RNA 1: B1 RNA 1
RNA 2: B1 RNA 2 with G33U, U35G, C48A, A51U
B10: target 1 C4G,A9G (mixed)
RNA 1: B1 RNA 1
RNA 2: B1 RNA 2 with G33U, U35G, A43G, C48G
B11: target 1 insG 3' of 8,insC 3' of 3 (mixed)
RNA 1: B1 RNA 1
RNA 2: B6 RNA 2 with C45G, G47C, C48G, U49C, G50U, G52C
B12: target 1 insC 3' of 14,insG 3' of 14 (mixed)
RNA 1: B1 RNA 1
RNA 2: B8 RNA 2 with U34A, A35G, C36A, G39C, A40G
B13: target 1 U3G,A20U (mixed)
RNA 1: B1 RNA 1
RNA 2: B1 RNA 2 with A32U, G33U, U35G, U49G
B14: target 1 C7A,C22G (mixed)
RNA 1: B1 RNA 1
RNA 2: B1 RNA 2 with C30G, G33U, U35G, C45A
B15: target 1 insC 3' of 18,insU 3' of 5 (mixed)
RNA 1: B1 RNA 1
RNA 2: B7 RNA 2 with G35C, A36G, C37A, C49U, U50C, C51U, A52C, C53A
B16: target 1 C6A,G17A (mixed)
RNA 1: B1 RNA 1
RNA 2: B1 RNA 2 with G33U, U35A, C46A

What follows are binders tested against T1, EsCas13d, nuclease-dead (Eubacterium siraeum, UniProt B0MS50, R295A;H300A;R849A;H854A) (assay: crRNA (strand 1, pre-loaded); Mg2+; 40 mM Tris-HCl pH 7.5, 150 mM NaCl, 6 mM MgCl2, 1 mM DTT, 0.1% Tween-20, 0.2 mg/ml BSA; 25 C; 10 min per concentration, then washed). Conditions: tags: His6-TwinStrep-SUMO cleaved; N-terminal SNAP kept (SNAP-Surface 488); label: 3' end held by stalled T7 RNA polymerase.
T1 sequence: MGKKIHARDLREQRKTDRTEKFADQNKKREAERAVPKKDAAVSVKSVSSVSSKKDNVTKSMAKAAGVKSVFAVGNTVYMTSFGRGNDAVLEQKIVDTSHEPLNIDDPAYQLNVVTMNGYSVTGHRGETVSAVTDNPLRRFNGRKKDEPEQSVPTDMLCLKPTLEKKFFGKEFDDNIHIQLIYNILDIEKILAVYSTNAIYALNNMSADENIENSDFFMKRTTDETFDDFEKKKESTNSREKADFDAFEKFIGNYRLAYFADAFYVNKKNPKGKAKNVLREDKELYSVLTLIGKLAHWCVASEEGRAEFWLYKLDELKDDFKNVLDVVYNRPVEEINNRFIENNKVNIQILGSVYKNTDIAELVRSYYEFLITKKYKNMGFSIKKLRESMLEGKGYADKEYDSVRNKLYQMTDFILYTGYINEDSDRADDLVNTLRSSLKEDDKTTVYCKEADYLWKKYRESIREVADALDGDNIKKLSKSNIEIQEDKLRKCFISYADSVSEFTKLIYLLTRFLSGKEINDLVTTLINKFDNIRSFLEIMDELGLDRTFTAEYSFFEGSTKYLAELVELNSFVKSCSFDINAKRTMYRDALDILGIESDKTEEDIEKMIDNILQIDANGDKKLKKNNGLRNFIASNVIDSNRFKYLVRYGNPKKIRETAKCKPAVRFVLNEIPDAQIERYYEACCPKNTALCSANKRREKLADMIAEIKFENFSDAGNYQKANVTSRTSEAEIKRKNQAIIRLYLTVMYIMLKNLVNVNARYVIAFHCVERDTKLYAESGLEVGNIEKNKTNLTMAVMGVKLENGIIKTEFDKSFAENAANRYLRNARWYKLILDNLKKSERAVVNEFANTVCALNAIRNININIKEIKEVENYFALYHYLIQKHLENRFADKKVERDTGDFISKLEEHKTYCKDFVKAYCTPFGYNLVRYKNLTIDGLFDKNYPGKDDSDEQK

**Q.** For B1, which Kd is on record?
**A.** The Kd was 80 ± 40 nM.

**Q.** B2 was tested. Which Kd did it give?
**A.** The Kd was 8.6 ± 0.7 nM.

**Q.** Which Kd does the source give for B3 here?
**A.** Its Kd is 14.1 ± 0.5 nM.

**Q.** For B4, which Kd is on record?
**A.** The Kd was 23.9 ± 2.4 nM.

**Q.** With B5 as the binder, how does the Kd read?
**A.** The Kd was 11.8 ± 0.4 nM.

**Q.** With B6 as the binder, how does the Kd read?
**A.** The Kd was 6.2 ± 0.4 nM.

**Q.** For B7, which Kd is on record?
**A.** The Kd was 77 ± 32 nM.

**Q.** With B8 as the binder, how does the Kd read?
**A.** The Kd was 36 ± 4 nM.

**Q.** Which Kd does the source give for B9 here?
**A.** Its Kd is 5.92 ± 0.27 nM.

**Q.** B10 was tested. Which Kd did it give?
**A.** The Kd was 3.9 ± 0.34 nM.

**Q.** Which Kd does the source give for B11 here?
**A.** Its Kd is 12.7 ± 0.6 nM.

**Q.** Which Kd does the source give for B12 here?
**A.** Its Kd is 50 ± 6 nM.

**Q.** Which Kd does the source give for B13 here?
**A.** Its Kd is 38 ± 4 nM.

**Q.** Which Kd does the source give for B14 here?
**A.** Its Kd is 41 ± 6 nM.

**Q.** For B15, which Kd is on record?
**A.** Its Kd is 84 ± 31 nM.

**Q.** Which Kd does the source give for B16 here?
**A.** The Kd was 37.8 ± 2.4 nM.
